From the DeepSol protein solubility set

Assay: soluble on expression in E. coli; label from the status in PepcDB or PDB records

Sequence | soluble on expression in E. coli
MKGIMVQGTASDVGKSLICTALCRIFARRGYKVTPFKSQNMSNNSYITVEGLEIGRAQGIQAEAAMEEASVYMNPILLKPRNDREAEIVCFGQAVDTVSGVKYRDGFYKRGLEAIKQALATLSQSFDMVVIEGAGSPVEVNLNDRELVNMKVAELADVPVILVADIERGGVFASLYGTLELLQPNERKRVVGIIVNKFRGDPELFSSGVQWIEQHLGVPVLGVLPHLPGVRIEGEDSLSKGQVTSVLPRDQSIDIAVLDLPYLSNYTDLEPFRYEEDVAIRFVSSVDALGRPDAIILPGTKSTFHDLQILKEKGFKERLHEYVTTDGTVVAICGGFQMLGHRLIDVAGSDTGIKGATIDGLDLAPVETRFAEKKKTVRSLGQLLHPFGTAKDIYGFEIHLGETDIVDPSIPAFLRVGNHTDGVYLHEGRLIGTYFHHLFFNDDFRSGWLNTLRRKKGLRERPTVELEKCRRASYDQLADEVERVLHVDSLLEKMERWGETS | soluble
MSLKAKIKELENNLERLRSDLQSKIQEIESIRSCKDSQLKWAQNTIDDTEMKMKSLLTELSNKETTIEKLSSEIENLDKELRKTKFQYKFLDQNSDASTLEPTLRKELEQIQVQLKDANSQIQAYEEIISSNENALIELKNELAKTKENYDAKIELEKKEKWAREEDLSRLRGELGEIRALQPKLKEGALHFVQQSEKLRNEVERIQKMIEKIEKMSTIVQLCKKKEMSQYQSTMKENKDLSELVIRLEKDAADCQAELTKTKSSLYSAQDLLDKHERKWMEEKADYERELISNIEQTESLREGHHHHHH | soluble
MSFDPLPGTLENLLEQTSLKWIFVGGKGGVGKTTTSCSLAIQMSKVRSSVLLISTDPAHNLSDAFGTKFGKDARKVPGFDNLSAMEIDPNLSIQEMTEQADQQNPNNPLSGMMQDLAFTIPGIDEALAFAEILKQIKSMEFDCVIFDTAPTGHTLRFLNFPTVLEKALGKLGGLSSRFGPMINQMGSIMGVNANEQDLFGKMESMRANISEVNKQFKNPDLTTFVCVCISEFLSLYETERMIQELTSYEIDTHNIVVNQLLLDPNTTCPQCMARRKMQQKYLAQIEELYEDFHVVKVPQVPAEVRGTEALKSFSEMLVKPYVYPTSGKE | soluble
MSSVLDVTKPDFDVEAFVVKLLREKSLDGLVKEEEEMVSAVRRLDSDVHQIVYENYNKFLTATNTVRKIQDEFTQLDSEMKSLSRSMSTISTLIGNLDGVLGEKRDDILQLGSSYKVVNSLKHIFDLPHVLRSEFDERNYGEVLRMFKLAEESLSQYKDVPTVQLVLQKSKKIYDMTENQLMDQLRNPASGAELVSEAVDLLLTIGRDEDEVQKVLLTCSEQSLRVDLKELSANHSDVLDLVDKASESFIPNLTLIATTHDRLFEDKREDLITVLKTEMNSLHALVSKVFLSSSDAKDCSIVVRALDRYFRKISTCRYVIPGLDFLPLTIELINAVSKHEIDLSLTRIKEELKNGLNEVRKALINEEKDLSALASKIEQVFVHQVKTALANLLLFTASDVTFANLPPDEFRQSFSFNAHERLLVQAFHRFSELADEYESGAGEIRFVDPRVHLVFAVALQHLSNKSAVYLLNLCREQFSLSPDDGLTDITVVMSEVKTRAQKLVRCYAEKTGLSMGETLIKGCAMLVQPAATPSAVRASVRRLVEEMNTCDSELTLLLGGDSKPKDSRVSRRPITTALDAARDSLWCERIDFHLQIHFNRASIITVIVKVVLKIFIESIRLQTYSKFGVEQVQVDCYYLQRCLAALVSDEVVVNSMVDQALSSALKRCQDPVLVHPSRLAQLCEQPPANRPSSQASSLGY | not soluble
MGSDKIHHHHHHMEVIFKRPKALSDREFTYCPGCHHGIIHRLIAEVIDELDIQEKTIMVAPVGCSVFAYEFFDVDGTVAPHGRALAVATGIKRALPDMIVFTYQGDGDLAAIGIAETIHAANRGEKLTTIFVNNAVYGMTGGQMAPTTLLGQKTTTTPYGRTAANDGYPLHVSEALSTIDGVAYLERTTVSTTKDILNTKKAIKKAFLAQIKGLGFGMVEVLSTCPTNWGMSPVEAQNWLLENMVKEFPPKVFVDKVGD | not soluble
MSLKSADSATQQYLKEKHEEYLSLQHGLQRREETLLATVNQIVVNQHAFLLHQAALAPLLLRDVAKALQVNESTVSRTIKGKHLQTDLGIFAFKDFFSKRTQAVSSSAYHSVDQLKFTMMQLIQSENKMCPASDNLLVKWLYEKGFKVARRTVTKYRNELGLPAASARKSREGHHHHHH | soluble
MVADVNLKTGEVGTRIAEINSNSDKRYVQRIIDEPKFSLMANLALSDADKSSTVVHFKASVRKGEKNLTNCIRDGLQEHFGKKIVSLAGQFIIQTGKARLHVMPDFPGCPFENNAEVDKWLNYFEMSAPLICATVMHSYDPGHNLRLEHTHCYSDHGDAGHYHYDVTPETVSYEGWFAPASKIYRIDEIKNR | not soluble
ITDRKVLERELATRNAFLTAVLQTSVSAIVALNAEGGIVYANDEARRLLVLQPHRGGLRMEAVLETLDGRPLPEADMPSALVRATGAPLHDLRYAIRRPDGQFGILSINAAPLPQAADDARIVISVTDIT | not soluble
MSDLVSYHLDDGVATLTLNNGKVNAISPDVIIAFNAALDQAEKDRAIVIVTGQPGILSGGYDLKVMTSSAEAAINLVAQGSTLARRMLSHPFPIIVACPGHAVAKGAFLLLSADYRIGVAGPFSIGLNEVQIGMTMHHAGIELARDRLRKSAFNRSVINAEMFDPEGAMAAGFLDKVVSVEELQGAALAVAAQLKKINMNAHKKTKLKVRKGLLDTLDAAIEQDRQHML | soluble
KSLLTAKTRNTIIFAFHPQAQKSSVAAAKIVYQAARKAGAPKDFIQWIETPSLENTTALMQNPEIASILATGGPSMVHAALTSGNPSMGVGAGNGAVFIDHTARVRRAAEDLLLSKRFDNGMICATE | not soluble
MSLYTASQLLDKINSHISDIRFTRTPAGLYDPIKYVLSMGGKRIRPVLMLMAYNLYKEDVSSIYDPATAIEVYHNYTLLHDDLMDRADMRRGKTTVHKVWNDNTAILSGDAMLVLAYQYMAASSSEHLKEVMDLFSLTALEICEGQQMDMNFESREDVKEEEYLEMIRLKTAVLLAASLKIGAILGGASPEDAENLYDFGMQIGVAFQLQDDLLDVYGDPAVFGKNIGGDILCNKKTYMLIKALERADRDQLEGLNHWLSATSFCPEEKISAVTELYTQIGIKAVCENKMREYYTRAMTSLGAVSVIEDKKSELKKLMKHLMYREGHHHHHH | soluble
MTKRSDSVAPKERINIKYVPATGDEQAEVELPHKMMVLGDFGLDDSRSLEDRQVMRIDKHTFNNVLNDADVSLAMSVPSALDATPNAELAVNLQFKSIQDFGPDRIARQVPELNKLLQLREALVALKGPLGNVPTFRKQLQQLLNDAHARKQLAQELDLVLEAPKAD | not soluble
MRVHEPNIIFEDDKHKFIWLGLDESENEKGILTNQYLIVHEGKGYLLDPGGYFVFERVYQNVTRFVKPENIVTILYSHQDPDVIGSLNLWVDLAPNATFYVSALWERFLPHLGAELKGRIVDIPDEGMSIDFIRAIPAHFMHSPGNFHYYDTYAKIYFSGDLGAAIFKDKWYLFVEDFESHIKLMEPFHRRYIASKKAIDIWLKKIEGLEINVIAPQHGAIFEGENAKKFIQWLRNLDKVGLDLME | soluble
METLTVHAPSPSTNLPSYGNGAFSLSAPHVPGAGPLLVQVVYSFFQSPNMCLQALTQLEDYIKKHGASNPLTLQIISTNIGYFCNADRNLVLHPGISVYDAYHFAKPAPSQYDYRSMNMKQMSGNVTTPIVALAHYLWGNGAERSVNIANIGLKISPMKINQIKDIIKSGVVGTFPVSTKFTHATGDYNVITGAYLGNITLKTEGTLTISANGSWTYNGVVRSYDDKYDFNASTHRGIIGESLTRLGAMFSGKEYQILLPGEIHIKESGKRAAHHHHHH | soluble
MAHHHHHHMLGSGKSSGVVNEASNLKANQNLTSAIEEMNTKEYIRNRDLNDVVPTHRRQVEAMMNKGNNNNGKVGLPAYDPAAEKEKERKERGQTHIEDRNDSDDDGELEELRKRRMAQMQQHHAKVAEWRQKQHGQYREISQDEFFSIVVREKGGSDDVCVHFYHKDFETCRVMDSRLLELSRMMLSVKFVKIDAEKSPFLVERLHIKTLPCCVLFHNDVAVDRIYGFEGCIGEDGLLDKELLGERILRAVNCKQEECE | soluble
MGSDKIHHHHHHMATMMMNDMAARGLRVGLLTWDPEDATAHYPMDPAITWMKLAMGEASQRAGWGLRLRRQRAIRRLARGFRPDVVIGFQAGAFIALRTALVGLGIPMIAAERNAPDLYDFLRQGVRARRMTELALATASRITVQLPSYRPRYPAFLRRRIVDIPNPVPALAEPPYPNEAADPPRLILNMGRLSYQKNQAFLLRAFARVAPTHPEWTLAFVGDGDAGATLKALCHELDLDDRVLFPGATRDVGAWYARSAFLAFPSLWEGFPNALVEAFAHGLPAVGLRTTSGVNELIVEGETGLLSAPDEGAFAEALARMIRDDEARREMGRKAARSILAYDPKAIFDRWEALFRAVAKRRSAP | not soluble
MKAICVLSGGLDSAVTSMFAKSKNYDISTVTFNYGQMALNQEIKSAKKISDILNADHHVIDINFVKEFSKSGLNTGNIPEPENEDLDDFEKSEKTMKAVWVPARNMIMFSIASGFAEGIGAEKIFSGLNKEEGVTFPDNTPEFIERFNKSLEYGTLNKVKMVAPLYELNKPEIAKLGKELELKLDLEVLKYSYSCYKDNGKDYLHCGTCESCMRRKRAFKEAGITDPTKYLVE | not soluble
MGHHHHHHSHMEFLTFLKSDYTHANLVDKALQLLKERILKGDTLAYFLRGQLYFEEGWYEEALEQFEEIKEKDHQATYQLGVMYYDGLGTTLDAEKGVDYMKKILDSPCPKARHLKFAAAYNLGRAYYEGKGVKRSNEEAERLWLIAADNGNPKASVKAQSMLGLYYSTKEPKELEKAFYWHSEACGNGNLESQGALGLMYLYGQGIRQDTEAALQCLREAAERGNVYAQGNLVEYYYKMKFFTKCVAFSKRIADYDEVHDIPMIAQVTDCLPEFIGRGMAMASFYHARCLQLGLGITRDETTAKHYYSKACRLNPALADELHSLLIRQRI | not soluble
MGSDKIHHHHHHMIAEPFLFRSEGGFIRIPIWGHIPLSAPLKKILAHPSFLRLKGIRQLSFAQQVYPGANHTRFEHSIGVYHLMKMILQRMVSNPLALELQDERLQFDDETCRTLLATCLLHDIGHYPHAHVLEEITPAGDSSAVFAHHESLTGQFLNEEHRDTPSIAAILHDDWQVNPDTVTEIIAGKTAHRLGKLVSGTLDPDKMDYLMRDAHHCNIPYGSIDIERLIESFVPDPERQRLAITEKGIAPLESLLFAKYMMMRNVYWHHTSRTFSTMLRRLLQDVADESALPMETLRELFYFNSDDRVLFELERAIRGLGLPAAELLDAILERRVYKRAMTIRPYHEPSMEIDPVWFAYNTSHRRRKEKELEICAMLAGKTGKRLAGHEVLIDAPPSKDVFDYSDFRELRIWPTKSEHRHLVQPTDSNGYVRFDDFRESVFGSDFILSFEQYTKKFRLLCRHDLVDTLSGLEEAVVEILRR | not soluble
MIDFSNFYQLIAKSPLSHWLETLPAQVAAWQRDALHGKFREWERAVEFLPELTPWRLDLLHSVTAESETPLSEGHQRRIENLLKNLMPWRKGPYSLYGINIDTEWRSDWKWERVLPHLSDLTGRTILDVGCGSGYHMWRMIGAGAHLAVGIDPTQLFLCQFEAVRKLLGNDQRAHLLPLGIEQLPALEAFDTVFSMGVLYHRRSPLDHLWQLKDQLAPGGELVLETLVVEGDENTVLVPGDRYAQMRNVYFIPSAAALKMWLEKCGFIDVRIVDACVTSTEEQRRTEWMTTESLADFLDPQDQRKTVEGYPAPLRAVIIATKPETQQSLAKKAR | not soluble
